B1: Ec F11 (antibody, V domains shown)
VH: QVQLKESGPGLVAPSQSLSITCTVSGFSLTNYAISWVRQPPGKGLEWLGIIWTGGGTLYNSALKSRPSISKDNSKSQVFLKMNSLQTDDTARYYCARAYYSNYDWYFDVWDTGTTVTVSS
VL: DIQMTQSPSSLSASLGDRVTISCSASQGISNYLNWYQQKPDGTVKLLIYYTSSLHSGVPSRFSGSGSGTDYSLTISNLEPEDIATYYCQQYSQVPYTFGGGTKLEIKR
B2: Ec C12 (antibody, V domains shown)
VH: QVQLKQSGPGLVAPSQSLSITCTVSGFSLTNYAISWVRQPPGKGLEWLGIIWTGGGTLYNSALKSRLSISKDNSKSQVFLKMNSLQTDDTARYYCARAYYSNYDWYFDVWDTGTTVTVSS
VL: DIQMTQSPSSLSASLGDRVTISCSASQGISNYLNWYQQKPDGTVKLLIYYTSSLHSGVPSRFSGSGSGTDYSLTISNLEPEDIATYYCQQYSQVPYTFGGGTKLEIKR
B3: Kp 1B07 (antibody, V domains shown)
VH: EVQLQQPGAELVKPGTSVKLSCKASGYTFTSYWMHWVKQRPGQGLEWIGMIHPNSGSTNYNEMFESKASLTVDKSSSTAYMQLSSLTSEDSAVYYCARIGYSGWGQGTSVTVSS
VL: DIVMTQSPSSLSVSAGEKVTMSCKSSQSLLNGGNQKNYLAWYQQKPGQPPKVLINGASTRESGVPDRFTGNGSGTDFTLTISSVQAEDLAVYYCQNDHTYPLTFGAGTKLELKR
B4: Kp 1E04 (antibody, V domains shown)
VH: EVQLQQSGAELVKPGASVKLSCKASGYTFTSYWVHWVRQRPGQGLEWIGMIHPNSGSTNYNEKFKSKATLTVDKSSSTAYMQLSSLTSEDSAVYYCASYYYGSSYYFDYWGQGTTLTVSS
VL: DIVMTQSPSSLTVTAGEKVTMSCKSSQSLLNSGNQKNYLTWYQQKPGQPPKLLIYWASTRESGVPDRFTGSGSGTDFTLTISSVQAEDLAVYYCQNDYSYPLTFGAGTKLELKR
B5: Kp 1B02 (antibody, V domains shown)
VH: EVQLQQSGAELVRPGSSVKMSCKTSGYTFTFYGINWVKQRPGQGLEWIGYIYVGNGYSEYNEKFKVKATLTSDTSSSTAYMQLSGLTSEDSAIYFCARSDGYNYFDYWGQGTTLTVSS
VL: QIVLTQSPAILSASPGEKVTMTCRASSSLHYMHWYQQKTGSSPKPWIYATSNLASGVPARFSGSGSGTSYSLTISRVEAEDTATYYCQQWSSNPPTFGAGTKLELKR
B6: Kp2 2C07 (antibody, V domains shown)
VH: EVKLVESGEGLVKPGGSLKLSCAASGFTFSSYAMSWVRQTPEKRLDWVAYISSGGDHIYYADTVKGRFTISRDNARNTLYLQMSSLKSEDTAMYYCTRDTGYYVSRYFDVWGTGTTVTVSS
VL: DIVMTQSQKFMSTSVGDRVSVTCKASQNVVTNVAWYQQKSGQSPKVVIYSASFRSSGVPDRFTGSGSGTDFTLTISNVQSEDLAEYFCHQYNSHPLTFGGGTKLEIKR
B7: Kp 2C09 (antibody, V domains shown)
VH: EVMLVESGEDLVKPGGSLKLSCIASGFTFSSYAMSWVRQTPEKRLEWVAYISSGGDYIYYTDTVKGRFTISRDNARNTLFLQMSSLKSEDTAMYYCTRDTGYYVSRYFDVWGTGTTVTVSS
VL: DIVMTQSQKFMSTSVGDRVSVTCKASQNVGTNVAWYQQKPGQSPKALIYSASFRNSGVPDRFTGSGSGTDFTLTISNVQSEDLAEYFCHQYNNYPLTFGGGTKLEIKR
B8: Kp 1D09 (antibody, V domains shown)
VH: EVQLQQPGAELVKPGASVKLSCKASGYTFTNYWIHWMKQRPGRGLEWIGRIEPNSGDTKYNEKIKSRATLTVDKPSSTAYMQLSSLTSEDSAVYYCARSGYDYPEAWGQGTTLTVSS
VL: DIVLTQSPASLAVSPGQRATISCRASEGVEYYGTTLMQWYQQKPGQPPKLLIYAASNVESGVPARFSGSGSGTDFSLNIHPVEEDDIAMYFCQQSRKVSWTFGGGTKLEIKR
B9: Kp 2B06 (antibody, V domains shown)
VH: EVQLQQPGAELVKPGASVKLSCKASGYTFTNYWMHWVKHRPGRGLEWIGRIDPNSGGTKYNEKFKNKATLTVDNPSSTGYMQLSSLTSEDSAVYYCTRSGYDYPDYWGQGTTLTVSS
VL: DIVLTQSPASLAVSLGQRATISCRASESVEYYGTSLMQWYQQKPGQPPKVLIYAASNVDSGVPPRFSGSGSGTDFSLNFHPVEEDDIAMYFCQQSRKVPWTFGGGTKLEIKR
B10: Ec E7 (antibody, V domains shown)
VH: EVQLQQSGAELVKPGASVKVSCKASGYSFTNYWVHWVKQRPGQGLEWIGRIYSSDGDSNYNQKFKGKATLTVDKSSSTAYMQLSSLTSEDSAVYYCAIEGNLYFDYWGQGTTLTVSS
VL: DIVLTQSPASLAVSLGQRATISCRASQSVSTSSYSYMHWYQQKPGQPPKFLIKYASNLESGVPARFSGSGSGTDFTLNIHPVEEEDTATYYCQHSWEIPLTFGAGTKLKLKR
B11: Ec A2 (antibody, V domains shown)
VH: EVQLQQSGAEQVRPGASVKMSCKASGYTFTTYNMNWMKQTPGQGLEWIGVIYPGNGDISYNQKFKGKATLTVDKSSSTAYMQLSSLTSEDSAVYFCAREGDYGPWFAYWGQGTLVTVSA
VL: QIVLTQSPAIMSASPGEKVTMTCRASSSVSSSYLHWYQQKSGASPKFWIYSTSKLASGVPARFSGSGSGTSYSLTISSVEAEDAATYYCQHYSRYPLTFGGGTKLEIKR
B12: Ec3 B7 (antibody, V domains shown)
VH: EVQLQQPGAELVRPGASVKMSCKASGYTFTIYNLHWVKQTPRQGLEWIGTIYPGDGDTSYNQKFKGKATLTVDKSSSTAYMQLSNLTSEDSAVYFCAREGDYGPWFAYWGQGTLVTVSA
VL: QIVLTQSPAIMSASPGEKVTMTCRASSSVSSSYLHWYQQKSGASPKLWIYSSSNLASGVPARFSGSGSGTSYSLTINSVEAEDAATYYCQHYGSYPLTFGGGTKLEIKR
B13: Kp 2D07 (antibody, V domains shown)
VH: EVQLQQSGPELVRPGASVKISCKASGYTFTDYYIHWLKQRPGQGLEWIGLIFPGSGSIYCNEKFKGKATLTVDKSSTTAYMLLSSLTSEDSAVYFCARWETTAWYFDVWGTGTTVTVSS
VL: QIVLTQSPAILSASPGEKVTMTCRASLSVSYMHWYQQKPGSSPKPWIYATSNLASGVPARFSGSGSGTSYSLTVSRVEAEDAATYYCQQWRSYPYTFGGGTKLEIKR
B14: Kp 2D04 (antibody, V domains shown)
VH: EVQLQQPGGELVRPGSSVKMSCKTSGYTFTFYGINWVKQRPGQGLEWIGYIYVGNGYTEYNEKFKVKATLTSDTSSSTAYMQLSGLTSEDSAIYFCARSDGYNYFDYWGQGTTLTVSS
VL: QIVLTQSPAILTASPGEKVTMTCRASSSVHYMHWYQQKPGSSPKPWIYATSNLASGVPARFSGSGSGTSYSLTISRVEAEDTATYYCHQWSSNPPTFGAGTKLEIKR
B15: 2G04 (antibody, V domains shown)
VH: EVQLQQPGPELVKPGSSLKISCKASGYTFTDYFINWVKQRPGQGLDWIGWIFPGSGSTYYNDKFKGKATLTVDKSSSTAYMLLSSLTSEASAVYFCARWDSDSTYWYFDVWGTGTTVTVSS
VL: QIVLTQSPALMAASPGEKVTITCSVNSSISSSTLHWYQQKSQTSPKPWIYGTSNLASGVPIRFSGSGSGTSYSLTISSMEAEDAATYYCQQWSTYPYTFGGGTKLEIKR
B16: Kp 2G02 (antibody, V domains shown)
VH: EVQLQQSGPVLVKPGPSVKISCKASGFTFTDYYMHWVKQSHGKSLEWIGLVYPYNGGTYYNQKFKGKATLTVDTSSSTAYMELNSLTSEDSAVYYCVRLGNGSSNEWYFDVWGTGTTVTVSS
VL: QIVLTQSPALMAASPGEKVTITCSVSSSISSYNLHWYQQKSETSPKPWIYGTSNLASGVPVRFSGSGSGTSYSLTISSMEAEDAATYYCQQWRTYPWTFGGGTKLEIKR
B17: Ec1 F7 (antibody, V domains shown)
VH: EVQLQQPGPVLVKPGPSVKISCKASGFTFTDYFIHWVKQSHGKSLEWIGLVSPYNGGTYYNQQFKGKATLTVDTSSSTAYMDLNSLTSEDSAVYYCTRLLRGYWYFDVWGTGTTVTVSS
VL: QIVLTQSPALMAASPGEKVTITCSVSSSIGSSNLHWYQQKSETSPKPWIYGTSNLASGVPVRFSGSGSGTSYSLTISSMEAEDAATYYCQQWSTYPYTFGGGTKLEIKR
B18: Kp 2E08 (antibody, V domains shown)
VH: EVQLQQPGAELAKPGASVKLSCKASGYNFTSYWMHWVKQRPGQGLEWIGLIHPNSGGTYYNEKFKSKATLTLDRSSSTAYMQLSSLTSEDSAVYYCARFEEEWGGYWYFDVWGTGTTVTVSS
VL: QIVLTQSPALMAASPGEKVTITCSVSSSISSSNLHWYQQKSETSPKPWIYGTSNLASGVPVRFSGSGSGTSYSLTISSMEAEDAATYYCQQWSSYPYTFGGGTKLEIKR
B19: Kp 1C01 (antibody, V domains shown)
VH: EVQLQQPGPVLVKPGPSVKISCKASGFTFTDYYMHWVKQSHGKSLEWIGLVSPYNGGTFYNQKFKGKATLTVDTSSSTAYMELNSLTSEDSAVYYCARVGNSYVHYAMDYWGQGTSVTVSS
VL: QIVLTQSPALMAASPGEKVTITCSVSSSISSSNLHWYQQKSETSPKPWIYGTSNLASGVPVRFSGSGSGTSYSLTISSMEAEDAATYYCQQWSNYPYTFGGGTKLEIKR

Assays:
Experiment in all cases: ELISA
[1] = molecular target: Ec FimHLD
[2] = molecular target: T1, Kp FimHLD
T1 chain: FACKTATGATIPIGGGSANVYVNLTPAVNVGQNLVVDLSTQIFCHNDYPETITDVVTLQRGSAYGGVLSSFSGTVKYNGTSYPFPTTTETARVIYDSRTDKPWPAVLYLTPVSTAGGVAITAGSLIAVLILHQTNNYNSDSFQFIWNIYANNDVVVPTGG

[3] = molecular target: T2, Ec FmlHLD
T2 chain: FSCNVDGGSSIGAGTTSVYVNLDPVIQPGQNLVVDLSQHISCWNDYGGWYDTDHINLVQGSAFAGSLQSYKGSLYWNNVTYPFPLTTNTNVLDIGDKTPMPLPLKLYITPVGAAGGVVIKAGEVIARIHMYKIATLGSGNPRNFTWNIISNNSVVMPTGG

Binder	EC50 [1]	EC50 [2]	EC50 [3]
B1	0.0273 µg/mL	0.752 µg/mL	–
B2	0.0122 µg/mL	–	–
B3	–	0.0148 µg/mL	–
B4	–	0.731 µg/mL	–
B5	0.024 µg/mL	0.0166 µg/mL	–
B6	0.013 µg/mL	0.0186 µg/mL	–
B7	0.0129 µg/mL	0.0101 µg/mL	–
B8	0.0227 µg/mL	0.0383 µg/mL	–
B9	0.0092 µg/mL	0.0169 µg/mL	–
B10	0.0266 µg/mL	–	–
B11	0.0131 µg/mL	0.0141 µg/mL	–
B12	0.0241 µg/mL	0.0391 µg/mL	–
B13	0.0129 µg/mL	0.0144 µg/mL	0.0178 µg/mL
B14	0.0121 µg/mL	0.0119 µg/mL	–
B15	0.0115 µg/mL	0.0081 µg/mL	2.89 µg/mL
B16	0.015 µg/mL	0.0105 µg/mL	0.0144 µg/mL
B17	0.0109 µg/mL	0.0078 µg/mL	0.0083 µg/mL
B18	0.0092 µg/mL	0.0149 µg/mL	–
B19	0.0146 µg/mL	0.0125 µg/mL	0.886 µg/mL
